The test system of the test is HEK293FT cells transfected with TF library. Kind of test: Screening of TF condensates based on fluorescent puncta. In kind it is cell-based. As to conditions: Figure 1B numerical data; TF library screen, one value per transcriptional factor. The gist of the method: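 Each TF construct was introduced into HEK293FT cells using PEI at 4.8 μg/ml; glucose deprivation versus normal medium lasted 12 h. Automated confocal-style imaging of tagged TF staining, 50 fields per well, gave the puncta data.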

B1: BCL11B (protein, UniProt Q9C0K0 1-894, looked up)
B-cell lymphoma/leukemia 11B: MSRRKQGNPQHLSQRELITPEADHVEAAILEEDEGLEIEEPSGLGLMVGGPDPDLLTCGQCQMNFPLGDILVFIEHKRKQCGGSLGACYDKALDKDSPPPSSRSELRKVSEPVEIGIQVTPDEDDHLLSPTKGICPKQENIAGPCRPAQLPAVAPIAASSHPHSSVITSPLRALGALPPCLPLPCCSARPVSGDGTQGEGQTEAPFGCQCQLSGKDEPSSYICTTCKQPFNSAWFLLQHAQNTHGFRIYLEPGPASSSLTPRLTIPPPLGPEAVAQSPLMNFLGDSNPFNLLRMTGPILRDHPGFGEGRLPGTPPLFSPPPRHHLDPHRLSAEEMGLVAQHPSAFDRVMRLNPMAIDSPAMDFSRRLRELAGNSSTPPPVSPGRGNPMHRLLNPFQPSPKSPFLSTPPLPPMPPGGTPPPQPPAKSKSCEFCGKTFKFQSNLIVHRRSHTGEKPYKCQLCDHACSQASKLKRHMKTHMHKAGSLAGRSDDGLSAASSPEPGTSELAGEGLKAADGDFRHHESDPSLGHEPEEEDEEEEEEEEELLLENESRPESSFSMDSELSRNRENGGGGVPGVPGAGGGAAKALADEKALVLGKVMENVGLGALPQYGELLADKQKRGAFLKRAAGGGDAGDDDDAGGCGDAGAGGAVNGRGGGFAPGTEPFPGLFPRKPAPLPSPGLNSAAKRIKVEKDLELPPAALIPSENVYSQWLVGYAASRHFMKDPFLGFTDARQSPFATSSEHSSENGSLRFSTPPGDLLDGGLSGRSGTASGGSTPHLGGPGPGRPSSKEGRRSDTCEYCGKVFKNCSNLTVHRRSHTGERPYKCELCNYACAQSSKLTRHMKTHGQIGKEVYRCDICQMPFSVYSTLEKHMKKWHGEHLLTNDVKIEQAERS
For B1, the “Z score of condensed fraction” value is -0.7987.

B2: SNAPC4 (protein, UniProt Q5SXM2 1-1469, looked up)
snRNA-activating protein …: MDVDAEREKITQEIKELERILDPGSSGSHVEISESSLESDSEADSLPSEDLDPADPPISEEERWGEASNDEDDPKDKTLPEDPETCLQLNMVYQEVIQEKLAEANLLLAQNREQQEELMRDLAGSKGTKVKDGKSLPPSTYMGHFMKPYFKDKVTGVGPPANEDTREKAAQGIKAFEELLVTKWKNWEKALLRKSVVSDRLQRLLQPKLLKLEYLHQKQSKVSSELERQALEKQGREAEKEIQDINQLPEEALLGNRLDSHDWEKISNINFEGSRSAEEIRKFWQNSEHPSINKQEWSREEEERLQAIAAAHGHLEWQKIAEELGTSRSAFQCLQKFQQHNKALKRKEWTEEEDRMLTQLVQEMRVGSHIPYRRIVYYMEGRDSMQLIYRWTKSLDPGLKKGYWAPEEDAKLLQAVAKYGEQDWFKIREEVPGRSDAQCRDRYLRRLHFSLKKGRWNLKEEEQLIELIEKYGVGHWAKIASELPHRSGSQCLSKWKIMMGKKQGLRRRRRRARHSVRWSSTSSSGSSSGSSGGSSSSSSSSSEEDEPEQAQAGEGDRALLSPQYMVPDMDLWVPARQSTSQPWRGGAGAWLGGPAASLSPPKGSSASQGGSKEASTTAAAPGEETSPVQVPARAHGPVPRSAQASHSADTRPAGAEKQALEGGRRLLTVPVETVLRVLRANTAARSCTQKEQLRQPPLPTSSPGVSSGDSVARSHVQWLRHRATQSGQRRWRHALHRRLLNRRLLLAVTPWVGDVVVPCTQASQRPAVVQTQADGLREQLQQARLASTPVFTLFTQLFHIDTAGCLEVVRERKALPPRLPQAGARDPPVHLLQASSSAQSTPGHLFPNVPAQEASKSASHKGSRRLASSRVERTLPQASLLASTGPRPKPKTVSELLQEKRLQEARAREATRGPVVLPSQLLVSSSVILQPPLPHTPHGRPAPGPTVLNVPLSGPGAPAAAKPGTSGSWQEAGTSAKDKRLSTMQALPLAPVFSEAEGTAPAASQAPALGPGQISVSCPESGLGQSQAPAASRKQGLPEAPPFLPAAPSPTPLPVQPLSLTHIGGPHVATSVPLPVTWVLTAQGLLPVPVPAVVSLPRPAGTPGPAGLLATLLPPLTETRAAQGPRAPALSSSWQPPANMNREPEPSCRTDTPAPPTHALSQSPAEADGSVAFVPGEAQVAREIPEPRTSSHADPPEAEPPWSGRLPAFGGVIPATEPRGTPGSPSGTQEPRGPLGLEKLPLRQPGPEKGALDLEKPPLPQPGPEKGALDLGLLSQEGEAATQQWLGGQRGVRVPLLGSRLPYQPPALCSLRALSGLLLHKKALEHKATSLVVGGEAERPAGALQASLGLVRGQLQDNPAYLLLRARFLAAFTLPALLATLAPQGVRTTLSVPSRVGSESEDEDLLSELELADRDGQPGCTTATCPIQGAPDSGKCSASSCLDTSNDPDDLDVLRTRHARHTRKRRRLV
For the molecule B2, the “Z score of condensed fraction” value was -0.9989.

B3: SNW1 (protein, UniProt Q13573 2-536, looked up)
SNW domain-containing protein …: ALTSFLPAPTQLSQDQLEAEEKARSQRSRQTSLVSSRREPPPYGYRKGWIPRLLEDFGDGGAFPEIHVAQYPLDMGRKKKMSNALAIQVDSEGKIKYDAIARQGQSKDKVIYSKYTDLVPKEVMNADDPDLQRPDEEAIKEITEKTRVALEKSVSQKVAAAMPVRAADKLAPAQYIRYTPSQQGVAFNSGAKQRVIRMVEMQKDPMEPPRFKINKKIPRGPPSPPAPVMHSPSRKMTVKEQQEWKIPPCISNWKNAKGYTIPLDKRLAADGRGLQTVHINENFAKLAEALYIADRKAREAVEMRAQVERKMAQKEKEKHEEKLREMAQKARERRAGIKTHVEKEDGEARERDEIRHDRRKERQHDRNLSRAAPDKRSKLQRNENRDISEVIALGVPNPRTSNEVQYDQRLFNQSKGMDSGFAGGEDEIYNVYDQAWRGGKDMAQSIYRPSKNLDKDMYGDDLEARIKTNRFVPDKEFSGSDRRQRGREGPVQFEEDPFGLDKFLEEAKQHGGSKRPSDSSRPKEHEHEGKKRRKE
Turning to B3, the “Z score of condensed fraction” value is recorded as -0.7186.

B4: SNAI2 (protein, UniProt O43623 1-268, looked up)
Zinc finger protein SNAI2: MPRSFLVKKHFNASKKPNYSELDTHTVIISPYLYESYSMPVIPQPEILSSGAYSPITVWTTAAPFHAQLPNGLSPLSGYSSSLGRVSPPPPSDTSSKDHSGSESPISDEEERLQSKLSDPHAIEAEKFQCNLCNKTYSTFSGLAKHKQLHCDAQSRKSFSCKYCDKEYVSLGALKMHIRTHTLPCVCKICGKAFSRPWLLQGHIRTHTGEKPFSCPHCNRAFADRSNLRAHLQTHSDVKKYQCKNCSKTFSRMSLLHKHEESGCCVAH
On to B4, for which the “Z score of condensed fraction” value is on record as -0.6818.

B5: BCL6B (protein, UniProt Q8N143 1-479, looked up)
B-cell CLL/lymphoma 6 member …: MGSPAAPEGALGYVREFTRHSSDVLGNLNELRLRGILTDVTLLVGGQPLRAHKAVLIACSGFFYSIFRGRAGVGVDVLSLPGGPEARGFAPLLDFMYTSRLRLSPATAPAVLAAATYLQMEHVVQACHRFIQASYEPLGISLRPLEAEPPTPPTAPPPGSPRRSEGHPDPPTESRSCSQGPPSPASPDPKACNWKKYKYIVLNSQASQAGSLVGERSSGQPCPQARLPSGDEASSSSSSSSSSSEEGPIPGPQSRLSPTAATVQFKCGAPASTPYLLTSQAQDTSGSPSERARPLPGSEFFSCQNCEAVAGCSSGLDSLVPGDEDKPYKCQLCRSSFRYKGNLASHRTVHTGEKPYHCSICGARFNRPANLKTHSRIHSGEKPYKCETCGSRFVQVAHLRAHVLIHTGEKPYPCPTCGTRFRHLQTLKSHVRIHTGEKPYHCDPCGLHFRHKSQLRLHLRQKHGAATNTKVHYHILGGP
In the case of B5, the “Z score of condensed fraction” value is -0.2442.

B6: SOX10 (protein, UniProt P56693 1-466, looked up)
Transcription factor SOX-10: MAEEQDLSEVELSPVGSEEPRCLSPGSAPSLGPDGGGGGSGLRASPGPGELGKVKKEQQDGEADDDKFPVCIREAVSQVLSGYDWTLVPMPVRVNGASKSKPHVKRPMNAFMVWAQAARRKLADQYPHLHNAELSKTLGKLWRLLNESDKRPFIEEAERLRMQHKKDHPDYKYQPRRRKNGKAAQGEAECPGGEAEQGGTAAIQAHYKSAHLDHRHPGEGSPMSDGNPEHPSGQSHGPPTPPTTPKTELQSGKADPKRDGRSMGEGGKPHIDFGNVDIGEISHEVMSNMETFDVAELDQYLPPNGHPGHVSSYSAAGYGLGSALAVASGHSAWISKPPGVALPTVSPPGVDAKAQVKTETAGPQGPPHYTDQPSTSQIAYTSLSLPHYGSAFPSISRPQFDYSDHQPSGPYYGHSGQASGLYSAFSYMGPSQRPLYTAISDPSPSGPQSHSPTHWEQPVYTTLSRP
For the molecule B6, the “Z score of condensed fraction” value is listed as -0.1457.

B7: SND1 (protein, UniProt Q7KZF4 2-910, looked up)
Staphylococcal nuclease …: ASSAQSGGSSGGPAVPTVQRGIIKMVLSGCAIIVRGQPRGGPPPERQINLSNIRAGNLARRAAATQPDAKDTPDEPWAFPAREFLRKKLIGKEVCFTIENKTPQGREYGMIYLGKDTNGENIAESLVAEGLATRREGMRANNPEQNRLSECEEQAKAAKKGMWSEGNGSHTIRDLKYTIENPRHFVDSHHQKPVNAIIEHVRDGSVVRALLLPDYYLVTVMLSGIKCPTFRREADGSETPEPFAAEAKFFTESRLLQRDVQIILESCHNQNILGTILHPNGNITELLLKEGFARCVDWSIAVYTRGAEKLRAAERFAKERRLRIWRDYVAPTANLDQKDKQFVAKVMQVLNADAIVVKLNSGDYKTIHLSSIRPPRLEGENTQDKNKKLRPLYDIPYMFEAREFLRKKLIGKKVNVTVDYIRPASPATETVPAFSERTCATVTIGGINIAEALVSKGLATVIRYRQDDDQRSSHYDELLAAEARAIKNGKGLHSKKEVPIHRVADISGDTQKAKQFLPFLQRAGRSEAVVEYVFSGSRLKLYLPKETCLITFLLAGIECPRGARNLPGLVQEGEPFSEEATLFTKELVLQREVEVEVESMDKAGNFIGWLHIDGANLSVLLVEHALSKVHFTAERSSYYKSLLSAEEAAKQKKEKVWAHYEEQPVEEVMPVLEEKERSASYKPVFVTEITDDLHFYVQDVETGTQLEKLMENMRNDIASHPPVEGSYAPRRGEFCIAKFVDGEWYRARVEKVESPAKIHVFYIDYGNREVLPSTRLGTLSPAFSTRVLPAQATEYAFAFIQVPQDDDARTDAVDSVVRDIQNTQCLLNVEHLSAGCPHVTLQFADSKGDVGLGLVKEGLVMVEVRKEKQFQKVITEYLNAQESAKSARLNLWRYGDFRADDADEFGYSR
For B7, the “Z score of condensed fraction” value was 0.9266.

B8: SMYD1 (protein, UniProt Q8NB12 1-490, looked up)
Histone-lysine …: MTIGRMENVEVFTAEGKGRGLKATKEFWAADIIFAERAYSAVVFDSLVNFVCHTCFKRQEKLHRCGQCKFAHYCDRTCQKDAWLNHKNECSAIKRYGKVPNENIRLAARIMWRVEREGTGLTEGCLVSVDDLQNHVEHFGEEEQKDLRVDVDTFLQYWPPQSQQFSMQYISHIFGVINCNGFTLSDQRGLQAVGVGIFPNLGLVNHDCWPNCTVIFNNGNHEAVKSMFHTQMRIELRALGKISEGEELTVSYIDFLNVSEERKRQLKKQYYFDCTCEHCQKKLKDDLFLGVKDNPKPSQEVVKEMIQFSKDTLEKIDKARSEGLYHEVVKLCRECLEKQEPVFADTNIYMLRMLSIVSEVLSYLQAFEEASFYARRMVDGYMKLYHPNNAQLGMAVMRAGLTNWHAGNIEVGHGMICKAYAILLVTHGPSHPITKDLEAMRVQTEMELRMFRQNEFMYYKMREAALNNQPMQVMAEPSNEPSPALFHKKQ
Take B8: the “Z score of condensed fraction” value is given as -0.4905.

The values above are taken from PMC11574045, “A cofactor-induced repressive type of transcription factor condensation can be induced by synthetic peptides to suppress tumorigenesis” (The EMBO Journal, 2024).
